{
  "source": "paper PMC9943651",
  "key": {"[1]": {"biological_target": "Annexin A2 CTD (AnxA2) (Homo sapiens) (UniProt P07355)", "sequence (P07355 34-339)": "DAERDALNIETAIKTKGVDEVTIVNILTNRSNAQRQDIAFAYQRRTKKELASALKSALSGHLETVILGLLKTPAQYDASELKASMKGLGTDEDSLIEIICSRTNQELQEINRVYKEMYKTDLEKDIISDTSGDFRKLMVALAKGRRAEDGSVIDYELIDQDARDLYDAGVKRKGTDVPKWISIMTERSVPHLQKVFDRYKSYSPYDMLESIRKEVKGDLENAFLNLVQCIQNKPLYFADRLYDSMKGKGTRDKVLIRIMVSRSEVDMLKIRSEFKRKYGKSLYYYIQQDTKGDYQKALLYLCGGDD", "experiment": "fluorescence anisotropy", "conditions": "20 mM HEPES pH 7.0, 100 mM NaCl, 1 mM DTT, with 1 mM CaCl2, MgCl2 or EGTA, 50 nM labelled oligo, 0-120 uM protein, temperature not stated"}, "[2]": {"biological_target": "AnxA2 mutant #3 K115A;K119A;R205A;K206A (Homo sapiens) (UniProt P07355)", "sequence (P07355 34-339 K115A/K119A/R205A/K206A)": "as the sequence (P07355 34-339) above, with K82A, K86A, R172A, K173A counted along it", "experiment": "fluorescence anisotropy", "conditions": "full PS DNA; no 2' modification; 20 mM HEPES pH 7.0, 100 mM NaCl, 1 mM DTT, with 1 mM CaCl2, MgCl2 or EGTA; 50 nM labelled oligo, 0-120 uM protein; temperature not stated"}},
  "data": [
    {"sequence": "GCCAGGCTGGTTATGACTCA [5-10-5 MALAT PS, labelled]", "values": [
      {"measurement": "Kd", "setting": "[1]; full PS, 5-10-5 2'-MOE gapmer, 5-methyl-C", "result": 6.3, "unit": "µM"}
    ]},
    {"sequence": "GCCAGGCTGGTTATG [5-10 MALAT PS, labelled]", "values": [
      {"measurement": "Kd", "setting": "[1]; full PS, 5 nt 2'-MOE 5' wing + 10 nt DNA, 5-methyl-C", "result": 9.3, "unit": "µM"}
    ]},
    {"sequence": "CTGCTAGCCTCTGGATTTGA [PTEN PS, labelled]", "values": [
      {"measurement": "Kd", "setting": "[1]; full PS DNA, no 2' modification", "result": 5, "unit": "µM"},
      {"measurement": "binding signal (fold weaker than wild type)", "setting": "[2]", "result": 7}
    ]},
    {"sequence": "TTTTTTTTTTTTTTTTTTTG [T19G PS, labelled]", "values": [
      {"measurement": "Kd", "setting": "[1]; full PS DNA", "result": 8.2, "unit": "µM"}
    ]}
  ]
}
